For assay [1], the target named is T1, full length Karet protein (RRS bait) (mouse, UniProt Q8K2Y9 1-453).
T1 construct: Yeast RRS construct; fusion partner not described; also called whole Karet protein
Put plainly: RRS screen in yeast, whole Karet protein against an embryonic mouse brain library. An excerpt:
The Ras rescue system (RRS) method is based on translocation of a mammalian cytoplasmic Ras to the plasma membrane, resulting in activation of a viability pathway in yeast (Broder, Y. C., S. Katz, and A. Aronheim. Curr Biol, 1998. 8 (20): p. 1121-4; Aronheim, A. Methods Mol Biol, 2004. 250: p. 251-62; Hubsman, M., G. et al. Nucleic Acids Res, 2001. 29 (4): p. E18).

Assay [2] deals with T2, recombinant PTB-domain containing Karet(1-228) truncation mutant (mouse, UniProt Q8K2Y9 1-228).
T2 construct: Recombinant protein for in-vitro precipitation; also called recombinant Karet protein; Karet PTB domain
T2 sequence: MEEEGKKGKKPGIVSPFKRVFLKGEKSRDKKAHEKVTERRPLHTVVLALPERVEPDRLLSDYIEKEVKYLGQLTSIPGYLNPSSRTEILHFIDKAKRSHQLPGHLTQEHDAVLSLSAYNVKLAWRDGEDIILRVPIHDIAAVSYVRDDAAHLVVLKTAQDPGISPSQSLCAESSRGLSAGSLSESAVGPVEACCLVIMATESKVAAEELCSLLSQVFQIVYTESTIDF
Put plainly: in-vitro precipitation with biotinylated peptide on streptavidin beads, blot anti-His.

Ends that are not written are not given here.

B1: Cysteine and glycine-rich protein 1 (Csrp1), mRNA (other, mouse, UniProt P97315 1-193, looked up)
chain: MPNWGGGKKCGVCQKTVYFAEEVQCEGNSFHKSCFLCMVCKKNLDSTTVAVHGEEIYCKSCYGKKYGPKGYGYGQGAGTLSTDKGESLGIKHEEAPGHRPTTNPNASKFAQKIGGSERCPRCSQAVYAAEKVIGAGKSWHKSCFRCAKCGKGLESTTLADKDGEIYCKGCYAKNFGPKGFGFGQGAGALVHSE
notes: RRS library clone (embryonic mouse brain)
With B1, the binding result in assay [1] is listed as “binds”.

B2: biotinylated synthetic TrkA juxtamembrane region peptide, position 458-484 (peptide)
peptide: MSLHFMTLGGSSLSPTEGKGSGLQGHI
modifications: also: biotinylated (position not given here)
notes: Immobilized on streptavidin beads; also called TrkA peptide
For B2, the binding result in assay [2] is on record as “binds”.

B3: Cyclin D1, mRNA (other, mouse, UniProt P25322 1-295, looked up)
chain: MEHQLLCCEVETIRRAYPDTNLLNDRVLRAMLKTEETCAPSVSYFKCVQKEIVPSMRKIVATWMLEVCEEQKCEEEVFPLAMNYLDRFLSLEPLKKSRLQLLGATCMFVASKMKETIPLTAEKLCIYTDNSIRPEELLQMELLLVNKLKWNLAAMTPHDFIEHFLSKMPEADENKQTIRKHAQTFVALCATDVKFISNPPSMVAAGSVVAAMQGLNLGSPNNFLSCYRTTHFLSRVIKCDPDCLRACQEQIEALLESSLRQAQQNVDPKATEEEGEVEEEAGLACTPTDVRDVDI
notes: as for B1
Regarding B3, the binding result in assay [1] is recorded as “binds”.
